One molecule from PMC11544074 can be followed below.

The target of the data set is GFP-pNLRC3-8xHis (Sus scrofa (pig), UniProt A0A287AW79 1-1066). Nature of the data set: MST.

B1: HSV120 dsDNA (unlabelled) (dsDNA)
DNA 1: TAAGACACGATGCGATAAAATCTGTTTGTAAAATTTATTAAGGGTACAAATGCCCTAGCTAGACACGATGCGATAAAATCTGTTTGTAAAATTTATTAAGGGTACAAATTGCCCTAGC
DNA 2: GCTAGGGCAATTTGTACCCTTAATAAATTTTACAAACAGATTTTATCGCATCGTGTCTAGCTAGGGCATTTGTACCCTTAATAAATTTTACAAACAGATTTTATCGCATCGTGTCTTA
Take B1: binding was characterised by a dissociation constant (Kd) of 10.1 µM.
